Data reported in US20130209454A1.
Changes are numbered by the printed parent chain. Names may count otherwise.

Key:
Test in all cases: cell-based or functional assay
[1] = biological target: HIV-1 strain 3016.v5.c45 envelope (gp120) (HIV-1)
[2] = biological target: HIV-1 strain 3718.v3.c11 envelope (gp120) (HIV-1)
[3] = biological target: HIV-1 strain 3301.v1.c24 envelope (gp120) (HIV-1)
[4] = biological target: HIV-1 Env of strain QH0692.42 (HIV-1)
[5] = biological target: HIV-1 strain 3415.v1.c1 envelope (gp120) (HIV-1)
[6] = biological target: HIV-1 strain 1054_07_TC4_1499 envelope (gp120) (HIV-1)
[7] = biological target: HIV-1 strain CAAN5342.A2 envelope (gp120) (HIV-1)
[8] = biological target: HIV-1 strain RHPA4259.7 envelope (gp120) (HIV-1)
[9] = biological target: HIV-1 strain 231966.c02 envelope (gp120) (HIV-1)
[10] = biological target: HIV-1 Env of strain Du156.12 (HIV-1)
[11] = biological target: HIV-1 Env of strain Ce2060_G9 (HIV-1)
[12] = biological target: HIV-1 strain X1193_c1 envelope (gp120) (HIV-1)
[13] = biological target: HIV-1 strain 3817.v2.c59 envelope (gp120) (HIV-1)
[14] = biological target: HIV-1 Env of strain TRO.11 (HIV-1)
[15] = biological target: HIV-1 strain Du156.12 envelope (gp120) (HIV-1)
[16] = biological target: HIV-1 Env of strain HIV-16845-2.22 (HIV-1)
[17] = biological target: HIV-1 Env of strain ZM233M.PB6 (HIV-1)
[18] = biological target: HIV-1 Env of strain 211-9 (HIV-1)
[19] = biological target: HIV-1 strain X2131_C1_B5 envelope (gp120) (HIV-1)
[20] = biological target: HIV-1 Env of strain T251-18 (HIV-1)
[21] = biological target: HIV-1 Env of strain X2131_C1_B5 (HIV-1)
[22] = biological target: HIV-1 strain AC10.0.29 envelope (gp120) (HIV-1)
[23] = biological target: HIV-1 strain 6480.v4.c25 envelope (gp120) (HIV-1)
[24] = biological target: HIV-1 strain T255-34 envelope (gp120) (HIV-1)
[25] = biological target: HIV-1 Env of strain Ce0682_E4 (HIV-1)
[26] = biological target: HIV-1 strain PVO.4 envelope (gp120) (HIV-1)
[27] = biological target: HIV-1 Env of strain Ce0393_C3 (HIV-1)
[28] = biological target: HIV-1 Env of strain R2184.c04 (HIV-1)
[29] = biological target: HIV-1 strain THRO4156.18 envelope (gp120) (HIV-1)
[30] = biological target: HIV-1 strain ZM197M.PB7 envelope (gp120) (HIV-1)
[31] = biological target: HIV-1 Env of strain 620345.c01 (HIV-1)
[32] = biological target: HIV-1 Env of strain 0330.v4.c3 (HIV-1)
[33] = biological target: HIV-1 strain Ce2010_F5 envelope (gp120) (HIV-1)
[34] = biological target: HIV-1 Env of strain Du172.17 (HIV-1)
[35] = biological target: HIV-1 Env of strain Ce2010_F5 (HIV-1)
[36] = biological target: HIV-1 strain TRO.11 envelope (gp120) (HIV-1)
[37] = biological target: HIV-1 strain R2184.04 envelope (gp120) (HIV-1)
[38] = biological target: HIV-1 strain P1981_C5_3 envelope (gp120) (HIV-1)
[39] = biological target: HIV-1 Env of strain Q259.d2.17 (HIV-1)
[40] = biological target: HIV-1 Env of strain WITO4160.33 (HIV-1)
[41] = biological target: HIV-1 Env of strain Q842.d12 (HIV-1)
[42] = biological target: HIV-1 strain QH0692.42 envelope (gp120) (HIV-1)
[43] = biological target: HIV-1 strain 3103.v3.c10 envelope (gp120) (HIV-1)
[44] = biological target: HIV-1 strain CNE20 envelope (gp120) (HIV-1)
[45] = biological target: HIV-1 Env of strain 3016.v5.c45 (HIV-1)
[46] = biological target: HIV-1 strain 0815.v3.c3 envelope (gp120) (HIV-1)
[47] = biological target: HIV-1 Env of strain CAP45.2.00.G3 (HIV-1)
[48] = biological target: HIV-1 strain HIV-16845-2.22 envelope (gp120) (HIV-1)
[49] = biological target: HIV-1 Env of strain CNE58 (HIV-1)
[50] = biological target: HIV-1 Env of strain ZM109F.PB4 (HIV-1)

B1: NIH45-46^G54Y IgG (antibody, name in Kabat numbering, V domains shown)
VH: QVRLSQSGGQMKKPGESMRLSCRASGYEFLNCPINWIRLAPGRRPEWMGWLKPRYGAVNYARKFQGRVTMTRDVYSDTAFLELRSLTSDDTAVYFCTRGKYCTARDYYNWDFEHWGRGAPVTVSS
VL: EIVLTQSPATLSLSPGETAIISCRTSQSGSLAWYQQRPGQAPRLVIYSGSTRAAGIPDRFSGSRWGADYNLSISNLESGDFGVYYCQQYEFFGQGTKVQVDI
[1]
  neutralization IC80: > 50 mg/L
[2]
  neutralization IC80: 3.85 mg/L
[3]
  neutralization IC80: 0.014 mg/L
[4]
  neutralization IC50: 0.52 mg/L
[5]
  neutralization IC80: 0.037 mg/L
[6]
  neutralization IC80: 0.236 mg/L
[7]
  neutralization IC80: 0.27 mg/L
[8]
  neutralization IC80: 0.02 mg/L
[9]
  neutralization IC80: 0.23 mg/L
[10]
  neutralization IC50: 0.007 mg/L
[11]
  neutralization IC50: 0.021 mg/L
[12]
  neutralization IC80: 0.024 mg/L
[13]
  neutralization IC80: > 50 mg/L
[14]
  neutralization IC50: 0.08 mg/L
[15]
  neutralization IC80: 0.026 mg/L
[16]
  neutralization IC50: 0.59 mg/L
[17]
  neutralization IC50: 0.16 mg/L
[18]
  neutralization IC50: > 50 mg/L
[19]
  neutralization IC80: 0.39 mg/L
[20]
  neutralization IC50: 0.35 mg/L
[21]
  neutralization IC50: 0.1 mg/L
[22]
  neutralization IC80: 0.9 mg/L
[23]
  neutralization IC80: 0.051 mg/L
[24]
  neutralization IC80: 0.174 mg/L
[25]
  neutralization IC50: 0.017 mg/L
[26]
  neutralization IC80: 0.18 mg/L
[27]
  neutralization IC50: 0.036 mg/L
[28]
  neutralization IC50: 0.015 mg/L
[29]
  neutralization IC80: 2.14 mg/L
[30]
  neutralization IC80: 0.21 mg/L
[31]
  neutralization IC50: > 50 mg/L
[32]
  neutralization IC50: 0.03 mg/L
[33]
  neutralization IC80: 0.235 mg/L
[34]
  neutralization IC50: > 50 mg/L
[35]
  neutralization IC50: 0.049 mg/L
[36]
  neutralization IC80: 0.22 mg/L
[37]
  neutralization IC80: 0.045 mg/L
[38]
  neutralization IC80: 0.09 mg/L
[39]
  neutralization IC50: 0.009 mg/L
[40]
  neutralization IC50: 0.03 mg/L
[41]
  neutralization IC50: 0.015 mg/L
[42]
  neutralization IC80: 1.5 mg/L
[43]
  neutralization IC80: 0.81 mg/L
[44]
  neutralization IC80: 2.4 mg/L
[45]
  neutralization IC50: 17.9 mg/L
[46]
  neutralization IC80: 0.015 mg/L
[47]
  neutralization IC50: > 50 mg/L
[48]
  neutralization IC80: 2.75 mg/L
[49]
  neutralization IC50: 0.04 mg/L
[50]
  neutralization IC50: 0.026 mg/L

B2: NIH45-46^G54F IgG (antibody, name in Kabat numbering, V domains shown)
VH: B1 VH with Y55F
VL: B1 VL
[1]
  neutralization IC80: 37 mg/L
[2]
  neutralization IC80: 4.62 mg/L
[3]
  neutralization IC80: 0.011 mg/L
[4]
  neutralization IC50: 0.56 mg/L
[5]
  neutralization IC80: 0.029 mg/L
[6]
  neutralization IC80: 0.283 mg/L
[7]
  neutralization IC80: 0.28 mg/L
[8]
  neutralization IC80: 0.02 mg/L
[9]
  neutralization IC80: 0.24 mg/L
[10]
  neutralization IC50: < 0.001 mg/L
[11]
  neutralization IC50: 0.022 mg/L
[12]
  neutralization IC80: 0.026 mg/L
[13]
  neutralization IC80: > 50 mg/L
[14]
  neutralization IC50: 0.11 mg/L
[15]
  neutralization IC80: 0.019 mg/L
[16]
  neutralization IC50: 0.59 mg/L
[17]
  neutralization IC50: 0.22 mg/L
[18]
  neutralization IC50: > 50 mg/L
[19]
  neutralization IC80: 0.41 mg/L
[20]
  neutralization IC50: 0.41 mg/L
[21]
  neutralization IC50: 0.1 mg/L
[22]
  neutralization IC80: 1.12 mg/L
[23]
  neutralization IC80: 0.046 mg/L
[24]
  neutralization IC80: 0.198 mg/L
[25]
  neutralization IC50: 0.011 mg/L
[26]
  neutralization IC80: 0.25 mg/L
[27]
  neutralization IC50: 0.04 mg/L
[28]
  neutralization IC50: 0.015 mg/L
[29]
  neutralization IC80: 3.01 mg/L
[30]
  neutralization IC80: 0.23 mg/L
[31]
  neutralization IC50: > 50 mg/L
[32]
  neutralization IC50: 0.04 mg/L
[33]
  neutralization IC80: 0.186 mg/L
[34]
  neutralization IC50: > 50 mg/L
[35]
  neutralization IC50: 0.046 mg/L
[36]
  neutralization IC80: 0.3 mg/L
[37]
  neutralization IC80: 0.054 mg/L
[38]
  neutralization IC80: 0.11 mg/L
[39]
  neutralization IC50: 0.009 mg/L
[40]
  neutralization IC50: 0.02 mg/L
[41]
  neutralization IC50: 0.011 mg/L
[42]
  neutralization IC80: 1.65 mg/L
[43]
  neutralization IC80: 1.28 mg/L
[44]
  neutralization IC80: 3.91 mg/L
[45]
  neutralization IC50: 5.82 mg/L
[46]
  neutralization IC80: 0.014 mg/L
[48]
  neutralization IC80: 2.75 mg/L
[49]
  neutralization IC50: 0.04 mg/L
[50]
  neutralization IC50: 0.022 mg/L

B3: NIH45-46^G54W(HC), S28Y(LC) (antibody, V domains shown)
VH: B1 VH with Y55W
VL: B1 VL with S28Y
[4]
  IC50, pseudovirus neutralization: 0.216 mg/L
[10]
  IC50, pseudovirus neutralization: 0.003 mg/L
[11]
  IC50, pseudovirus neutralization: 0.014 mg/L
[14]
  IC50, pseudovirus neutralization: 0.02 mg/L
[16]
  IC50, pseudovirus neutralization: 0.38 mg/L
[17]
  IC50, pseudovirus neutralization: 0.011 mg/L
[18]
  IC50, pseudovirus neutralization: 0.253 mg/L
[20]
  IC50, pseudovirus neutralization: 0.336 mg/L
[21]
  IC50, pseudovirus neutralization: 0.031 mg/L
[25]
  IC50, pseudovirus neutralization: 0.007 mg/L
[27]
  IC50, pseudovirus neutralization: 0.046 mg/L
[28]
  IC50, pseudovirus neutralization: 0.008 mg/L
[31]
  IC50, pseudovirus neutralization: > 50 mg/L
[34]
  IC50, pseudovirus neutralization: 0.015 mg/L
[35]
  IC50, pseudovirus neutralization: 0.03 mg/L
[39]
  IC50, pseudovirus neutralization: 0.001 mg/L
[40]
  IC50, pseudovirus neutralization: 0.015 mg/L
[41]
  IC50, pseudovirus neutralization: 0.001 mg/L
[45]
  IC50, pseudovirus neutralization: 0.006 mg/L
[47]
  IC50, pseudovirus neutralization: 0.02 mg/L
[49]
  IC50, pseudovirus neutralization: 0.016 mg/L
[50]
  IC50, pseudovirus neutralization: 0.013 mg/L

B4: NIH45-46^G54W (antibody, V domains shown)
VH: B1 VH with Y55W
VL: B1 VL
[4]
  IC50, pseudovirus neutralization: 0.37 mg/L
[10]
  IC50, pseudovirus neutralization: 0.001 mg/L
[11]
  IC50, pseudovirus neutralization: 0.005 mg/L
[14]
  IC50, pseudovirus neutralization: 0.04 mg/L
[16]
  IC50, pseudovirus neutralization: 0.45 mg/L
[17]
  IC50, pseudovirus neutralization: 0.02 mg/L
[18]
  IC50, pseudovirus neutralization: 16.4 mg/L
[20]
  IC50, pseudovirus neutralization: 0.26 mg/L
[21]
  IC50, pseudovirus neutralization: 0.05 mg/L
[25]
  IC50, pseudovirus neutralization: 0.01 mg/L
[27]
  IC50, pseudovirus neutralization: 0.013 mg/L
[28]
  IC50, pseudovirus neutralization: 0.005 mg/L
[31]
  IC50, pseudovirus neutralization: > 50 mg/L
[34]
  IC50, pseudovirus neutralization: 3.65 mg/L
[35]
  IC50, pseudovirus neutralization: 0.038 mg/L
[39]
  IC50, pseudovirus neutralization: 0.001 mg/L
[40]
  IC50, pseudovirus neutralization: 0.01 mg/L
[41]
  IC50, pseudovirus neutralization: 0.005 mg/L
[45]
  IC50, pseudovirus neutralization: 1.47 mg/L
[47]
  IC50, pseudovirus neutralization: 32.2 mg/L
[49]
  IC50, pseudovirus neutralization: 0.02 mg/L
[50]
  IC50, pseudovirus neutralization: 0.002 mg/L
